Results from US20200087347 (published 2020).
Side-chain parts run from the residue outwards. [ ]: non-standard residue; d: D form. NMeK = CN[C@@H](CCCCN)C(=O)O; BDPFL = dye

Legend:
Test in all cases: competition
integrin αvβ3 = molecular target: T1, integrin αvβ3 (human, UniProt P06756)
T1 chain 1: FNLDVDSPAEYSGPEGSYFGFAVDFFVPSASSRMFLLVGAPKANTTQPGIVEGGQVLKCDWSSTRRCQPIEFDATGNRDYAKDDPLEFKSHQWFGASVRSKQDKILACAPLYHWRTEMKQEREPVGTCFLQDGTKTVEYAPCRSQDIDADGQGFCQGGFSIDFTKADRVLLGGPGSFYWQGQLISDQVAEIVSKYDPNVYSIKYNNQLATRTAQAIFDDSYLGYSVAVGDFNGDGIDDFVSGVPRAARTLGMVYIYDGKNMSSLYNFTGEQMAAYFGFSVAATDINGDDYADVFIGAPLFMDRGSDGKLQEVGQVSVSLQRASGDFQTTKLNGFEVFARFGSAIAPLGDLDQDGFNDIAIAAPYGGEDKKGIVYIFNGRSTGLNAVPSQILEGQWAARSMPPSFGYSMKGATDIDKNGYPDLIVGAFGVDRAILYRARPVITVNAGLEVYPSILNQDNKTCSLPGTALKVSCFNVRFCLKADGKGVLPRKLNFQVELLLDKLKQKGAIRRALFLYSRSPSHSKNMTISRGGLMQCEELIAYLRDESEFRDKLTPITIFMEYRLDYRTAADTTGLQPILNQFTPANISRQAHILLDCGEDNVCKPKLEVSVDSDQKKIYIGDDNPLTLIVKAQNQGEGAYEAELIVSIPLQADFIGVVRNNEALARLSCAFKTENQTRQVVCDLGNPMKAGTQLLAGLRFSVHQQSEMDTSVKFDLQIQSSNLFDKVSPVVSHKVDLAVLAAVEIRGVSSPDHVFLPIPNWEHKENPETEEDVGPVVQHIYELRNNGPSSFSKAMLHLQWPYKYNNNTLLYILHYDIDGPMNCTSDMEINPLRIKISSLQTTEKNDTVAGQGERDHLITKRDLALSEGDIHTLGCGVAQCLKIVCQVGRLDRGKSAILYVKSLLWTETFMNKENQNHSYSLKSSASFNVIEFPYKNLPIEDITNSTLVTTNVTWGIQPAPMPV
T1 chain 2: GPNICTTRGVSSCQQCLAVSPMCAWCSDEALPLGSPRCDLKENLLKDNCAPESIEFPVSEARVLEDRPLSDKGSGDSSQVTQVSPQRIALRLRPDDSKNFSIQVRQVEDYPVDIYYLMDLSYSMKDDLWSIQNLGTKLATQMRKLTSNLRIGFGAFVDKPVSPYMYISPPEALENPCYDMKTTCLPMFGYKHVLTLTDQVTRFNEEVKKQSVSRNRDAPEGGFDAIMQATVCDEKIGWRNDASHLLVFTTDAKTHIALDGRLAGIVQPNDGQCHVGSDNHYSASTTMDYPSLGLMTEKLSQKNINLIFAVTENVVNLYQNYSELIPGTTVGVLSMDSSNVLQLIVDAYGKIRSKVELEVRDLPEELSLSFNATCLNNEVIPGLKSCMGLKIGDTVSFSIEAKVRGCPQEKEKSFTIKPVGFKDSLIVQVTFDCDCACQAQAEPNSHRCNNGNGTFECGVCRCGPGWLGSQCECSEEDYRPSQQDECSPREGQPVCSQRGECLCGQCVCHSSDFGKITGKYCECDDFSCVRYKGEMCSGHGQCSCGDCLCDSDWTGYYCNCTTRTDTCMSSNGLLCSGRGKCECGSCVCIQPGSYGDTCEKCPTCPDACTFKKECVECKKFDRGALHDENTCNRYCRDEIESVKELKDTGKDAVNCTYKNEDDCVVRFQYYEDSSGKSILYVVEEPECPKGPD

integrin αvβ6 = molecular target: T2, integrin αvβ6 (human, UniProt P06756)
T2 chain 1: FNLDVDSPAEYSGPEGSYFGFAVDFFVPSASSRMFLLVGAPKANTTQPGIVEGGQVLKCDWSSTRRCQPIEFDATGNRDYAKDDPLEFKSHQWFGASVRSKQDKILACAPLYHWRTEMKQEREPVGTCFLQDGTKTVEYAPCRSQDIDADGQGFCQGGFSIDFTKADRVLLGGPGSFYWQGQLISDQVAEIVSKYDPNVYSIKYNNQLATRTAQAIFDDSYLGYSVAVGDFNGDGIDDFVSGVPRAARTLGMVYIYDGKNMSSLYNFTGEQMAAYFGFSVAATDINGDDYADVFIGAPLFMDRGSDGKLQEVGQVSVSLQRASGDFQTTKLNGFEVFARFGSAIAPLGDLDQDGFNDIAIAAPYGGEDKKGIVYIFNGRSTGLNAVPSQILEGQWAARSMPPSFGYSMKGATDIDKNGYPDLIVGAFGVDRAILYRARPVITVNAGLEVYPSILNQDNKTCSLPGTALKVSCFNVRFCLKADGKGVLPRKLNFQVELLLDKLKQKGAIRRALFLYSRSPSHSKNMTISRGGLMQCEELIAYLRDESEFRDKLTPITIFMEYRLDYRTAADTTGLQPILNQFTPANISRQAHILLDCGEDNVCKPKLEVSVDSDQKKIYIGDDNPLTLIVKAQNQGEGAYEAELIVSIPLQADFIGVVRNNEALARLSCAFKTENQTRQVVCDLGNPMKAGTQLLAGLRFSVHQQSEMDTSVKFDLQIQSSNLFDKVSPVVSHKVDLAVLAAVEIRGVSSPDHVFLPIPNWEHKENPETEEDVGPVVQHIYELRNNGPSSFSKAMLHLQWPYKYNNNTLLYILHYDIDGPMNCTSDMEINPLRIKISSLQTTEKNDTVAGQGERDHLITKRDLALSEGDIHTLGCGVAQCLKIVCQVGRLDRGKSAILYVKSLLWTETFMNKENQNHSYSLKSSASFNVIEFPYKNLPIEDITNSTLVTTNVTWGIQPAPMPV
T2 chain 2: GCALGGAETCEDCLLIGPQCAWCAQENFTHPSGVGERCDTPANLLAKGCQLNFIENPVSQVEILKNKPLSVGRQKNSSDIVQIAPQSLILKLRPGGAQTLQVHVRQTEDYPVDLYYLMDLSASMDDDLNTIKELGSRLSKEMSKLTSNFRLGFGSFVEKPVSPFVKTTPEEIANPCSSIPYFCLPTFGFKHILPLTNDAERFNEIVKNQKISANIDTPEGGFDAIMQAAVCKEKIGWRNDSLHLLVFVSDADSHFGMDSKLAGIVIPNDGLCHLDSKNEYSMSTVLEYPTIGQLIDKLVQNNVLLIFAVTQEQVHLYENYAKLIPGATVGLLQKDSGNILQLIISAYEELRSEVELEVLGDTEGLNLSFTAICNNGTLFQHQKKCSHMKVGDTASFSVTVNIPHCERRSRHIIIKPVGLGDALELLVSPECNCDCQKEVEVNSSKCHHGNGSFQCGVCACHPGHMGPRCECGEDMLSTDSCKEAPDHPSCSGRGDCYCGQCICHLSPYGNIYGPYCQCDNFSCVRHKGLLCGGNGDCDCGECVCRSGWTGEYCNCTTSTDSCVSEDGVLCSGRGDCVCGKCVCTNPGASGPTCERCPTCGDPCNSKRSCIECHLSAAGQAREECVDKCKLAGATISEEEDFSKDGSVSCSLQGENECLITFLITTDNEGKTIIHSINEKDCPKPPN

integrin αvβ5 = molecular target: T3, integrin αvβ5 (human, UniProt P06756)
T3 chain 1: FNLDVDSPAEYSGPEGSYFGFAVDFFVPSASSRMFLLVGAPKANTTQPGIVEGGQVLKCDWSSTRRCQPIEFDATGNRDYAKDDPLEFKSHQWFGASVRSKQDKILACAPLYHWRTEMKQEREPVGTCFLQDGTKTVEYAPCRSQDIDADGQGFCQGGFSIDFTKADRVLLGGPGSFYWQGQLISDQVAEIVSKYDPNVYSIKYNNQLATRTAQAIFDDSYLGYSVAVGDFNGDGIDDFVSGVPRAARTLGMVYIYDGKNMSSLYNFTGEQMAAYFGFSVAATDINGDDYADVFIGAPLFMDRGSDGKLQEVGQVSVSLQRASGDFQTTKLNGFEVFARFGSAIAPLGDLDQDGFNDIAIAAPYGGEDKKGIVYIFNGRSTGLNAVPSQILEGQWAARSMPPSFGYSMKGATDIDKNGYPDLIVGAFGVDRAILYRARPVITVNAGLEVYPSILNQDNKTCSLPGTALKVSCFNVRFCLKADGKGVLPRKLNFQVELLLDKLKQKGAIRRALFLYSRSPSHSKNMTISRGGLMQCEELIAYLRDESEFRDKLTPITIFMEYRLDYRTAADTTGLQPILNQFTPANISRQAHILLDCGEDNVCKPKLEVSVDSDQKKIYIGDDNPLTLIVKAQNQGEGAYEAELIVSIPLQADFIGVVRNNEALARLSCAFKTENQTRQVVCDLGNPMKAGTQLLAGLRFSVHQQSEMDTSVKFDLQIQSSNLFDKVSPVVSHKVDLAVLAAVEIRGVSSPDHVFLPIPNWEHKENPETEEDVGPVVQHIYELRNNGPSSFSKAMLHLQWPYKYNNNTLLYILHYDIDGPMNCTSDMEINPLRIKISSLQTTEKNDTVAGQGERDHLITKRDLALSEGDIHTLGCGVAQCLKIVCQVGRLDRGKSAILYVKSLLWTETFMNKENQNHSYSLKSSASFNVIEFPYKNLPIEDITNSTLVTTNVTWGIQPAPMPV
T3 chain 2: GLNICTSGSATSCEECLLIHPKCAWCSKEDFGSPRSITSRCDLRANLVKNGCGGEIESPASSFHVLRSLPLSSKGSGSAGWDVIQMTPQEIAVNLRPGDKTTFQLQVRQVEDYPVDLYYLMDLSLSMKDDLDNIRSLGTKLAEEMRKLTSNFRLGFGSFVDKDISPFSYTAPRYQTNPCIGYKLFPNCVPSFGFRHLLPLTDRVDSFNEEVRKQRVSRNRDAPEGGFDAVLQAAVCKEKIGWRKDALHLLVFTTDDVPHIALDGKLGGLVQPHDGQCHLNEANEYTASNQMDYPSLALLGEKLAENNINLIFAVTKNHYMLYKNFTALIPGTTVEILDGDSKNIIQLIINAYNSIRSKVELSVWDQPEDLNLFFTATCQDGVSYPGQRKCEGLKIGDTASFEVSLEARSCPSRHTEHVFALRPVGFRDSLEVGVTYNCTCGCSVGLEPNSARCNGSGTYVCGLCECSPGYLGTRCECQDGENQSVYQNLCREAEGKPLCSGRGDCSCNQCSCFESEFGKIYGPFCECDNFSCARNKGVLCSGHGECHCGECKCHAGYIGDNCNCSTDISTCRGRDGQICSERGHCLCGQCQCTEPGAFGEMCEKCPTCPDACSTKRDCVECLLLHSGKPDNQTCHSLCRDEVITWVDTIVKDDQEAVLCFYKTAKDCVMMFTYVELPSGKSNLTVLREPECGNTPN

integrin α5β1 = integrin α5β1 (human, UniProt P08648)
Chain of integrin α5β1 (P08648 42-1049, chain 1 of 2): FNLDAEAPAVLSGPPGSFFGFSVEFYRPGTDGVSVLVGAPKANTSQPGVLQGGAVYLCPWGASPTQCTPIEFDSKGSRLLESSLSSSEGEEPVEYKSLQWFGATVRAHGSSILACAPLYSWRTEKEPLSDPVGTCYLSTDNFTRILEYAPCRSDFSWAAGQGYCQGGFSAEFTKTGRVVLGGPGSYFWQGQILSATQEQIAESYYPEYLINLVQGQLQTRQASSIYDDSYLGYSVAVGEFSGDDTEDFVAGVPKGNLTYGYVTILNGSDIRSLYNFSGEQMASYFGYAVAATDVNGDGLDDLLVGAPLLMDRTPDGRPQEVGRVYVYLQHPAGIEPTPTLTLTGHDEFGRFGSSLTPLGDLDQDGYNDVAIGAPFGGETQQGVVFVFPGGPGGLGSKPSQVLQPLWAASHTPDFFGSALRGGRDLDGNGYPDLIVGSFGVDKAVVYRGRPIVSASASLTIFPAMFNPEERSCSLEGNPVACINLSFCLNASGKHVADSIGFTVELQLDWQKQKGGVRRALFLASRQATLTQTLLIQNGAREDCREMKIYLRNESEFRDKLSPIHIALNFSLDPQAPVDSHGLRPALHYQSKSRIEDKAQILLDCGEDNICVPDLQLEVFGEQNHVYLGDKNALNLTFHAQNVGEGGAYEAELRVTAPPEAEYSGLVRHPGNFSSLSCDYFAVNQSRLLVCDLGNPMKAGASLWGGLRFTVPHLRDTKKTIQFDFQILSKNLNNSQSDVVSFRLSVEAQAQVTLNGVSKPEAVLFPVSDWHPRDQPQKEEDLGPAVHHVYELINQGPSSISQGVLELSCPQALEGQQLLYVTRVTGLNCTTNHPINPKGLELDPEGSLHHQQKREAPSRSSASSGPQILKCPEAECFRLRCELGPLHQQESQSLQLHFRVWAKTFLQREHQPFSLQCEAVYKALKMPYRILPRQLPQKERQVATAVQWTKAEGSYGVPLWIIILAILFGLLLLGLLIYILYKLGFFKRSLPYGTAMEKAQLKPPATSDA
Chain of integrin α5β1 (chain, as listed by the source, chain 2 of 2): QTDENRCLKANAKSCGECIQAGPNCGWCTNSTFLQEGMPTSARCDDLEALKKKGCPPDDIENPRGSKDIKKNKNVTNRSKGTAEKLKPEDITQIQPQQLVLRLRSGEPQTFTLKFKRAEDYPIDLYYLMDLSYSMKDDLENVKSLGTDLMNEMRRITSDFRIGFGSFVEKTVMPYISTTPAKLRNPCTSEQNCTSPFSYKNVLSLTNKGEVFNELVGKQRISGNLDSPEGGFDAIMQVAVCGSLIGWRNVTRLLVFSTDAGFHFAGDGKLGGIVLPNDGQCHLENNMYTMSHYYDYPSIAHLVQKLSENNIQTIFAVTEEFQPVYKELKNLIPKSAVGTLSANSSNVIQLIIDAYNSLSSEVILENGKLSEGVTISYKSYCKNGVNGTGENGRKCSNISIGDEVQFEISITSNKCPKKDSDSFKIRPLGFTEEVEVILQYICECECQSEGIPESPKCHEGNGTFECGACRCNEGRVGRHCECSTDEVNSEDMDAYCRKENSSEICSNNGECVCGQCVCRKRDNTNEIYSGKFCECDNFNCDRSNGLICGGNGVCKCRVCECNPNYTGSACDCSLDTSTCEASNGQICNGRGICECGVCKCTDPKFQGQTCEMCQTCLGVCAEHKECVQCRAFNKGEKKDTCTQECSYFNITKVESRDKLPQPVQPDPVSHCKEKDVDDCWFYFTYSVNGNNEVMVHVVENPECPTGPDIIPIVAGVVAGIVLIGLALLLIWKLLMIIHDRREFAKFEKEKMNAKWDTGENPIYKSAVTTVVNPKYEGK

integrin αvβ8 = molecular target: T4, integrin αvβ8 (human, UniProt P06756)
T4 chain 1: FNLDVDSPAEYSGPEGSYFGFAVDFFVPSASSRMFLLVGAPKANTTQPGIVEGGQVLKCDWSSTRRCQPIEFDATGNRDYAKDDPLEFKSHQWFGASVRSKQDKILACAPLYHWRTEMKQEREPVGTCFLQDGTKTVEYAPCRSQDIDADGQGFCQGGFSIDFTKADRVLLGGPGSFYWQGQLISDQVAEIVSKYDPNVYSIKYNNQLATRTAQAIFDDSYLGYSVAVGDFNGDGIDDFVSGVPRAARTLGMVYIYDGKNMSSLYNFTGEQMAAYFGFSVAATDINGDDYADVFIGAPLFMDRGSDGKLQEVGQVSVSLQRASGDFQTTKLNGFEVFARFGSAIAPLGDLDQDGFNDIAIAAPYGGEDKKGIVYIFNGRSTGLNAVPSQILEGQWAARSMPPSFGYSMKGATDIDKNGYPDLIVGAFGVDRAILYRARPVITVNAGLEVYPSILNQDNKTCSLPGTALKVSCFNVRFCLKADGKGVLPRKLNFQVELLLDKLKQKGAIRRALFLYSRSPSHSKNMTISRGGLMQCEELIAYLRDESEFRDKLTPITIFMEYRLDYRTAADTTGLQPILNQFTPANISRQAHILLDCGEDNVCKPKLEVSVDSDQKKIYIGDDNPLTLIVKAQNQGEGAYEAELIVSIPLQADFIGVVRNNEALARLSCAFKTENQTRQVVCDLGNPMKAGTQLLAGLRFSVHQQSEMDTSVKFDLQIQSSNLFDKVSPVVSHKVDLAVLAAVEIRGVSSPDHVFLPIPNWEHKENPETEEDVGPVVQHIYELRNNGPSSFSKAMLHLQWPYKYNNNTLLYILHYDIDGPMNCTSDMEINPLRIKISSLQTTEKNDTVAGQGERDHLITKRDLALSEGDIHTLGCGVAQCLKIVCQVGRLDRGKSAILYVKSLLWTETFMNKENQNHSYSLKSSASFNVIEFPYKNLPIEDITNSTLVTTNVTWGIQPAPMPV
T4 chain 2: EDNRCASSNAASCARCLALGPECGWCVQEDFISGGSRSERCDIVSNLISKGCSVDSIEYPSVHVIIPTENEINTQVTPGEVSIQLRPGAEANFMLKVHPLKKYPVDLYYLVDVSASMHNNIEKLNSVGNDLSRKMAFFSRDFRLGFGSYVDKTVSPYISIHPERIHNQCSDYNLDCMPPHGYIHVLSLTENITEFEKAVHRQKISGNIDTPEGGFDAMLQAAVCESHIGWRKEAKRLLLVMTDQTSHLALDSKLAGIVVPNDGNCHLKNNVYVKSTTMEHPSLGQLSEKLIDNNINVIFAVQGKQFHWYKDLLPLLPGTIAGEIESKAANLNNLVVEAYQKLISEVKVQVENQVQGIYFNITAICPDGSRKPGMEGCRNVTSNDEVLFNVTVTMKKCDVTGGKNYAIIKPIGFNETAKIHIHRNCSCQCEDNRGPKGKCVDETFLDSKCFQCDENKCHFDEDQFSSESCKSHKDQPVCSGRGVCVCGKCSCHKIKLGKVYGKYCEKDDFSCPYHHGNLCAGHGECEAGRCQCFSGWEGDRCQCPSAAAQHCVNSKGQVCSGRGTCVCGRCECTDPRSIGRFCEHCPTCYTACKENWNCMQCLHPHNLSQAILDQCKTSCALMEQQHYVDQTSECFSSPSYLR

- IC50 (integrin αvβ3): 42 nM
- IC50 (integrin αvβ6): 453 nM
- IC50 (integrin αvβ5): > 10000 nM
- IC50 (integrin α5β1): 782 nM
- IC50 (integrin αvβ8): 7.98 nM
Binder: cyclo(RGDL[dP][NMeK]([Gly-Pro-Pro-Pro-Pro-Pro-Pro-Gly-BDPFL])GL) [Compound 9f (9-G(P)6G-BDPFL)]
